This is an account of results in publication PMC10786891, “Massively parallel profiling of RNA-targeting CRISPR-Cas13d”.

T1: EsCas13d, nuclease-dead (Eubacterium siraeum, UniProt B0MS50, R295A;H300A;R849A;H854A)
T1 sequence: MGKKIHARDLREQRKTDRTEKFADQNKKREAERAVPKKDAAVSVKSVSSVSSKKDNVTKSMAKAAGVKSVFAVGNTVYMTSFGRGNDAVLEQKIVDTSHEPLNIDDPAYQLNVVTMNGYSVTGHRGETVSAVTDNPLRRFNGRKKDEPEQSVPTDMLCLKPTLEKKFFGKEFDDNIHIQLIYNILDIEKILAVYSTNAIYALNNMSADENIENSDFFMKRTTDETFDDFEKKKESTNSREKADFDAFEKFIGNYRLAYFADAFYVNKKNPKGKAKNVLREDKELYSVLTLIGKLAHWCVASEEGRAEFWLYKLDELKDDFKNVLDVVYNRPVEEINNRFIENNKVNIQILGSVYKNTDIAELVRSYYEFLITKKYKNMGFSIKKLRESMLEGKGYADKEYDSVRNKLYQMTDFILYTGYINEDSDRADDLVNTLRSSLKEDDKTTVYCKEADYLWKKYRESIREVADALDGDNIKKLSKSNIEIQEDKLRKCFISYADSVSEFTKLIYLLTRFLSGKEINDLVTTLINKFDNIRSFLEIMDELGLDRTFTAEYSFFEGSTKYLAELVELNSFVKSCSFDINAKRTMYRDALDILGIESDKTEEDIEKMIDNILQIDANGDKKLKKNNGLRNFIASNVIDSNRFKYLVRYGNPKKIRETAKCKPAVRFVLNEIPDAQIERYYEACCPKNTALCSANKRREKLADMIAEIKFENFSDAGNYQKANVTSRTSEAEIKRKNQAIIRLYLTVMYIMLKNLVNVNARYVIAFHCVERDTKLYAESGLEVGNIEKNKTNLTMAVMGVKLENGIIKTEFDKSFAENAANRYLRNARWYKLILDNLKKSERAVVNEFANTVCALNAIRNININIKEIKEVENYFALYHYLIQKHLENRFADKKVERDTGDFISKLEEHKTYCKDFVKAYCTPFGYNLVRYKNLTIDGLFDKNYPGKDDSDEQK

B1: target 1 MT 5'PFS AAG 3'PFS CUC (mixed)
RNA 1: CACCCGUGCAAAAAUGCAGGGGUCUAAAACUGAGCGGAUAACCUCUCUAUGG
RNA 2: GGGAAUGGAUCCACAUCUACGAAUUCAAGCCAUAGAGAGGUUAUCCGCUCACUCAGAUCGGAAGAGCACACGU
B2: target 1 MT 5'PFS GGG 3'PFS CCU (mixed)
RNA 1: B1 RNA 1
RNA 2: B1 RNA 2 with A27G, A28G, U53C, C54U
B3: target 1 MT 5'PFS UAU 3'PFS ACA (mixed)
RNA 1: B1 RNA 1
RNA 2: B1 RNA 2 with A27U, G29U, C52A, U53C, C54A
B4: target 1 MT 5'PFS AUA 3'PFS CGG (mixed)
RNA 1: B1 RNA 1
RNA 2: B1 RNA 2 with A28U, G29A, U53G, C54G
B5: target 1 MT 5'PFS CCG 3'PFS AUC (mixed)
RNA 1: B1 RNA 1
RNA 2: B1 RNA 2 with A27C, A28C, C52A
B6: target 1 A9G,U10G (mixed)
RNA 1: B1 RNA 1
RNA 2: B1 RNA 2 with A27G, A28U, G29A, U42G, A43G, U53C, C54G
B7: target 1 MT 5'PFS GCC 3'PFS ACG (mixed)
RNA 1: B1 RNA 1
RNA 2: B1 RNA 2 with A27G, A28C, G29C, C52A, U53C, C54G
B8: target 1 MT 5'PFS GGC 3'PFS CUG (mixed)
RNA 1: B1 RNA 1
RNA 2: B1 RNA 2 with A27G, A28G, G29C, C54G
B9: target 1 MT 5'PFS GCU 3'PFS UGA (mixed)
RNA 1: B1 RNA 1
RNA 2: B1 RNA 2 with A27G, A28C, G29U, C52U, U53G, C54A
B10: target 1 MT 5'PFS UAU 3'PFS ACU (mixed)
RNA 1: B1 RNA 1
RNA 2: B1 RNA 2 with A27U, G29U, C52A, U53C, C54U
B11: target 1 MT 5'PFS GCC 3'PFS ACA (mixed)
RNA 1: B1 RNA 1
RNA 2: B1 RNA 2 with A27G, A28C, G29C, C52A, U53C, C54A
B12: target 1 MT 5'PFS UAG 3'PFS AGA (mixed)
RNA 1: B1 RNA 1
RNA 2: B1 RNA 2 with A27U, C52A, U53G, C54A
B13: target 1 MT 5'PFS GGG 3'PFS CCG (mixed)
RNA 1: B1 RNA 1
RNA 2: B1 RNA 2 with A27G, A28G, U53C, C54G
B14: target 1 insU 3' of 7,insA 3' of 3 (mixed)
RNA 1: B1 RNA 1
RNA 2: GGGAAUGGAUCCACAUCUACGAAUUCGUACCAUAGAGAGGUUAUCUCGCUACACCGAGAUCGGAAGAGCACACGU
B15: target 1 MT 5'PFS GCU 3'PFS AAU (mixed)
RNA 1: B1 RNA 1
RNA 2: B1 RNA 2 with A27G, A28C, G29U, C52A, U53A, C54U
B16: target 1 MT 5'PFS CCA 3'PFS AAU (mixed)
RNA 1: B1 RNA 1
RNA 2: B1 RNA 2 with A27C, A28C, G29A, C52A, U53A, C54U
B17: target 1 MT 5'PFS GGG 3'PFS CCC (mixed)
RNA 1: B1 RNA 1
RNA 2: B1 RNA 2 with A27G, A28G, U53C
B18: target 1 MT 5'PFS GCU 3'PFS AAC (mixed)
RNA 1: B1 RNA 1
RNA 2: B1 RNA 2 with A27G, A28C, G29U, C52A, U53A
B19: target 1 MT 5'PFS GGC 3'PFS CUA (mixed)
RNA 1: B1 RNA 1
RNA 2: B1 RNA 2 with A27G, A28G, G29C, C54A
B20: target 1 MT 5'PFS AUA 3'PFS AGG (mixed)
RNA 1: B1 RNA 1
RNA 2: B1 RNA 2 with A28U, G29A, C52A, U53G, C54G
B21: target 1 MT 5'PFS UAU 3'PFS ACC (mixed)
RNA 1: B1 RNA 1
RNA 2: B1 RNA 2 with A27U, G29U, C52A, U53C
B22: target 1 A14C,A16G (mixed)
RNA 1: B1 RNA 1
RNA 2: B1 RNA 2 with A27G, A28U, G29A, A36G, A38C, U53C, C54G
B23: target 1 insU 3' of 15,insG 3' of 6 (mixed)
RNA 1: B1 RNA 1
RNA 2: GGGAAUGGAUCCACAUCUACGAAUUCGUACCAUAGAGUAGGUUAUCCGGCUCACCGAGAUCGGAAGAGCACACGU
B24: target 1 MT 5'PFS GCC 3'PFS CAU (mixed)
RNA 1: B1 RNA 1
RNA 2: B1 RNA 2 with A27G, A28C, G29C, U53A, C54U
B25: target 1 MT 5'PFS GCC 3'PFS CAC (mixed)
RNA 1: B1 RNA 1
RNA 2: B1 RNA 2 with A27G, A28C, G29C, U53A
B26: target 1 MT 5'PFS AGU 3'PFS UUG (mixed)
RNA 1: B1 RNA 1
RNA 2: B1 RNA 2 with A28G, G29U, C52U, C54G
B27: target 1 MT 5'PFS GGC 3'PFS CUU (mixed)
RNA 1: B1 RNA 1
RNA 2: B1 RNA 2 with A27G, A28G, G29C, C54U
B28: target 1 MT 5'PFS GGC 3'PFS CUC (mixed)
RNA 1: B1 RNA 1
RNA 2: B1 RNA 2 with A27G, A28G, G29C
B29: target 1 MT 5'PFS UAG 3'PFS AGU (mixed)
RNA 1: B1 RNA 1
RNA 2: B1 RNA 2 with A27U, C52A, U53G, C54U
B30: target 1 MT 5'PFS ACC 3'PFS CUC (mixed)
RNA 1: B1 RNA 1
RNA 2: B1 RNA 2 with A28C, G29C
B31: target 1 MT 5'PFS GCC 3'PFS ACU (mixed)
RNA 1: B1 RNA 1
RNA 2: B1 RNA 2 with A27G, A28C, G29C, C52A, U53C, C54U
B32: target 1 MT 5'PFS AGC 3'PFS UAG (mixed)
RNA 1: B1 RNA 1
RNA 2: B1 RNA 2 with A28G, G29C, C52U, U53A, C54G

Positions count from the first letter of the chain named. Names and notes keep the numbering of the source.

In this data set the target is T1, EsCas13d, nuclease-dead. Briefly: crRNA (strand 1, pre-loaded); Mg2+; 40 mM Tris-HCl pH 7.5, 150 mM NaCl, 6 mM MgCl2, 1 mM DTT, 0.1% Tween-20, 0.2 mg/ml BSA; 25 C; 10 min per concentration, then washed. Particulars: tags: His6-TwinStrep-SUMO cleaved; N-terminal SNAP kept (SNAP-Surface 488); label: 3' end held by stalled T7 RNA polymerase.
What is called Kd is the equilibrium constant for the complex coming apart. A higher Kd goes with lower affinity. With B1, the affinity, expressed as Kd, was 0.0385 ± 0.0135 µM.
B2: the dissociation constant (Kd) was 0.0185 ± 0.007 µM.
As for B3, the figure is 0.054 ± 0.0205 µM.
Then B4, with 0.027 ± 0.0065 µM; and B5, with roughly 0.00865 µM; and B6, with 0.037 ± 0.004 µM.
In turn, B7 returned a Kd of 0.0139 ± 0.0037 µM.
Then B8, with 0.0173 ± 0.004 µM; and B9, with 0.1 ± 0.04 µM; and B10, with 0.029 ± 0.005 µM.
As for B11, the figure is roughly 0.064 µM.
Regarding B12, the Kd amounted to 0.03 ± 0.0055 µM.
For B13, the equilibrium dissociation constant (Kd) turned out to be 0.0151 ± 0.00345 µM.
Then B14, with 0.0204 ± 0.0013 µM; and B15, with roughly 0.0825 µM; and B16, with 0.0073 ± 0.00235 µM.
Then B17, with roughly 0.05 µM; and B18, with roughly 0.08 µM; and B19, with 0.0152 ± 0.00425 µM.
Then B20, with roughly 0.09 µM.
Take B21: the Kd is 0.036 ± 0.015 µM.
As for B22, the figure is roughly 0.09 µM; as for B23, 0.0149 ± 0.0008 µM.
As to B24, the Kd was roughly 0.012 µM.
As for B25, the figure is roughly 0.034 µM.
Then B26, with 0.047 ± 0.017 µM; and B27, with 0.0113 ± 0.00225 µM.
As for B28, the figure is 0.0171 ± 0.00705 µM; as for B29, 0.0565 ± 0.016 µM; as for B30, roughly 0.012 µM.
Regarding B31, the affinity, expressed as Kd, was 0.0112 ± 0.00205 µM.
As for B32, the figure is 0.017 ± 0.0065 µM.
